The values that follow come from paper PMC5123050.

In the assay the target is 32P-labelled ORF145/RIP (protein kinase A recognition sequence and C-terminal His-tag) (Acidianus two-tailed virus (ATV)). The assay can be described thus: native gel or EMSA; 32P-ORF145/RIP (1 nM) with 1–100 nM Sso RNAP in 10 mM MOPS pH 6.5, 10 mM MgCl2, 260 mM NaCl, 5 mM DTT, 10% glycerol, BSA, 2 mM ATP, 65 °C 5 min; 6% native PAGE; tight binding equation; complexes also resistant to 2 M NaCl. In general terms: Mobility shift assays separate free from complexed probe on a gel.

A word on the Kd: it is the concentration at which binding is half-saturated. Turning to “Sulfolobus solfataricus (Sso) RNA polymerase, 13 subunits (from UniProt Q980R2 1-880) (complex)”, the Kd was 12.6 nM.
